# Measurements published in patent US8722043B2, “Induction of p53 expression by neutralization of neuropilin-2 for the treatment of cancers” (Diaclone, priority 2008, dated 2014).
# B1: ITAC-B1: anti-human neuropilin-2 murine monoclonal antibody, VH SEQ ID No. 2, VL SEQ ID No. 4, produced by hybridoma CNCM 1-4054 (antibody, listed as Mus musculus, V domains shown)
# VH: EVKLQESGAELVKPGASVKLSCTVSGFNIKDTYIHWVIQRPEQGLEWLGRIDPANGNTKYDPKFQGKATITADTSSNTAYLQLSSLTSEDTAVYYCARWAVVGDYWGQGTTLTVSS
# VL: YCDHPLYKFLHVSAGDRVTITCKASQSVSDDVAWYQQKPGQSPKLLIYSASNRYTGVPDRFTGSGYGTDFTFTISTVQPEDLAVYFCQQDYSSPTFGSGTKLELK
# Experiments:
# [1] = test system: Colo320^siRNA-NRP-2 cells (not expressing NRP-2); assay: MTT assay for tumour cell proliferation; assay type: cell-based, human; conditions: 5 μg/ml antibody; 24, 48 or 72 hours
# Excerpt: (§1) The MTT proliferation assay is based on the reduction of 3-(4,5-dimethylthiazol-2-yl)-2,5-diphenyltetrazolium bromide), by the mitochondrial succinate dehydrogenase of active live cells, to give formazan. The coloration intensity (OD) induced by this reaction is proportional to the number of live cells present during the assay, and to the metabolic activity thereof.
# (§2) 4000 cells per well of Colo320^siRNA-ctrl cells (control cells transfected with an empty vector) or of Colo320^siRNA-NRP-2 cells (transfected with an siRNA targeting NRP-2), in 100 μl of DMEM medium containing 10% of inactivated FCS, were seeded into a 96-well Maxisorp plate. After adhesion of the cells, 5 μg/ml of ITAC-B anti-NRP-2 antibody or 5 μg/ml of control antibody were added. After culture for 24, 48 or 72 hours, 10 p. 1 of MTT reconstituted at 5 mg/ml in PBS were added to each culture well. The plates were then incubated for 3 hours in the dark, at 37° C. and 5% CO2, and centrifuged, and then the supernatant was removed. 200 p. 1 of DMSO were then added to each well. The optical density was read within an hour, at 570 nm, after shaking with the plate. The assay was carried out in triplicate.
# (§3) Panels A and B of FIG. 11 represent, respectively, the results obtained in the proliferation assay carried out with the Colo320^siRNA-ctrl or Colo320^siRNA-NRP-2 cells. […]
# [2] = test system: Colo320^siRNA-ctrl cells (express NRP-2); assay: MTT assay for tumour cell proliferation; assay type: cell-based, human; conditions: 5 μg/ml antibody; 24, 48 or 72 hours
# Excerpt: as §1, §2, §3
# [3] = molecular target: T1, neuropilin-2 on HT29-NRP-2 tumour cells (Homo sapiens, UniProt O60462); assay: Competition between VEGFa and ITAC-B1 for recognition of neuropilin-2 (flow cytometry); assay type: binding; conditions: preincubation with VEGF 1000 ng/ml for 15 minutes
# T1 construct: expressed in transfected cells; host or cells: HT29 (human colorectal cancer) and P815 (murine mastocytoma) cells, G418-selected
# Description: These cells were then incubated with the ITAC-B1 antibody or with a control isotype antibody (BZ1 antibody), and analysed by flow cytometry as described in Example 2 above.
# [4] = test system: HT29ctrl cells; assay: Annexin V-APC apoptosis test; assay type: cell-based, human; conditions: 0.5, 1 and 5 μg/ml; 16 hours
# Description: In order to determine the ability of the ITAC-B1 antibody to induce apoptosis of tumour cells expressing NRP-2, an in vitro Annexin V-APC apoptosis test was carried out (BD Pharmingen, San Diego, Calif.). This test is based on the externalization of phosphatidylserin by apoptotic cells and on the binding of Annexin V-APC to this molecule.
# 1 ml of DMEM medium containing 10% of inactivated FCS and 100 000 HT29-NRP-2 cells or 100 000 HT29ctrl cells were seeded, per well, into a 24-well Nunc plate. After adhesion of the cells (3 hours), three concentrations of ITAC-B anti-NRP-2 antibody (0.5 μg/ml, 1 μg/ml and 5 μg/ml) were tested in various wells. In parallel, “cells alone” controls were carried out, as were negative controls (anti-human mouse IgG1 antibody (BZ1) at the same concentrations as the ITAC-B1 antibody).
# After incubation for 16 hours, the culture supernatant was drawn off and 500 μl of trypsin-EDTA were added to each well and left in contact for 10 minutes. When the cells began to detach, 500 μl of DMEM medium-10% FCS were added per well. […]
# For each of the panels of FIG. 12, the number of events (number of cells) is indicated on the y-axis and the fluorescence intensity (corresponding to the labelling of the cells with the Annexin V-APC) is represented on the x-axis. […]
# [5] = test system: p53 protein; assay: Western blotting of p53 expression after antibody treatment; assay type: cell-based, human; conditions: 20 ng/ml, 48 hours
# Description: The HT29, HT29-NRP-2, Colo320^siRNA-ctrl tumour cells and Colo320^siRNA-NRP-2 were exposed to 20 ng/ml of ITAC-B1 antibody or of control antibody, and cultured for 48 hours. After lysis of the cell lines, migration of the protein pellets obtained on a 10% polyacrylamide gel (10 μg of protein per well) and then transfer onto a PVDF membrane, the membrane was incubated overnight with the anti-p53 primary antibody (BD Biosciences, mouse anti-human p53) diluted to 1/500. After washing in TBS/0.1% Tween20, the membranes were incubated for 1 hour with an anti-mouse IgG-HRP secondary antibody diluted to 1/6000. The results are represented in FIG. 19.
# T1 sequence (O60462 21-931): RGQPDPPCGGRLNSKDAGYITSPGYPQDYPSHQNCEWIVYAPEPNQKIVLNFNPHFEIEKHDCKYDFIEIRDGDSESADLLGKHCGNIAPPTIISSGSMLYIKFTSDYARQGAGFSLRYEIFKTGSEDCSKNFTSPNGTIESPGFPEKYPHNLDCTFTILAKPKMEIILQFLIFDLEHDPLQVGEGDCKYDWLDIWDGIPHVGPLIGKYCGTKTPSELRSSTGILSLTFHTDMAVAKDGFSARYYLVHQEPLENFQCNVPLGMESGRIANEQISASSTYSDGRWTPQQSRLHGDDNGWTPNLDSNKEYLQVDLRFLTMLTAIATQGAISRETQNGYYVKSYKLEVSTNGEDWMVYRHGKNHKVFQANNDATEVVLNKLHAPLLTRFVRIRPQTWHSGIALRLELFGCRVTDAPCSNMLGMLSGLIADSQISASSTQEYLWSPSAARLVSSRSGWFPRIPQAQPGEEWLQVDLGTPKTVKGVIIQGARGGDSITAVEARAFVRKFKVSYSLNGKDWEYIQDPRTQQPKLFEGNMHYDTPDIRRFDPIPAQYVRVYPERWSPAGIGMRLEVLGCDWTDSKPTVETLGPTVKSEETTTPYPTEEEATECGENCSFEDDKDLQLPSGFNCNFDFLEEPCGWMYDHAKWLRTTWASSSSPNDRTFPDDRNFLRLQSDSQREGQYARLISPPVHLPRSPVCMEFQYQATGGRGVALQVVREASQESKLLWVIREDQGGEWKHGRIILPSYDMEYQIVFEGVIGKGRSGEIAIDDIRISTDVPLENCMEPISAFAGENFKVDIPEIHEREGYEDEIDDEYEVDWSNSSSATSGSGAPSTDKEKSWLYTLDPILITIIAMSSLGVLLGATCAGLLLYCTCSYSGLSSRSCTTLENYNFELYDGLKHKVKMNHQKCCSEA
molecule,measurement,setting,value
B1,proliferation (OD at 570 nm),[1],identical to that of the control cells and to that observed in the presence of the control antibody
same,proliferation (OD at 570 nm),[2],less than that of the cells alone and that observed in the presence of the control antibody
same,binding to the tumour cells in the presence of VEGFa,[3],does not prevent the binding of ITAC-B1 to the tumour cells
same,apoptosis (Annexin V-APC labelling),[4],does not bring about the apoptosis of cells not expressing NRP-2
same,expression of p53 in lines which express NRP-2,[5]; HT29-NRP-2 and Colo320^siRNA-ctrl,partly restores the expression of p53
same,expression of p53 in lines which do not express NRP-2,"[5]; HT29-ctrl and Colo320^siRNA-NRP-2, with or without antibody",strongly expressed
